Assays:
[1] = biological target: human receptor for advanced glycation endproducts (RAGE) on A375-hRAGE cells (human) (UniProt Q15109)
[2] = biological target: receptor for advanced glycation endproducts (RAGE) on wild-type A375 cells (human (endogenous in A375)) (UniProt Q15109)
[3] = biological target: extracellular S100A4 secreted by A375 cells (human (endogenous in A375)) (UniProt P26447)
[4] = biological target: extracellular S100A4 secreted by A375-hS100A4 cells (human) (UniProt P26447)

extracellular S100A4 secreted by A375 cells (from UniProt P26447 1-101) (natural protein)
decrease of invasion of A375-hRAGE cells (Boyden chamber with Matrigel) with blocking anti-RAGE antibody (10 μg/ml; R&D), against untreated cells [1]: 15%
decrease of migration of A375-hRAGE cells (Boyden chamber) with blocking anti-RAGE antibody (10 μg/ml; R&D), against untreated cells [1]: 10%

recombinant human S100A4 (from UniProt P26447 1-101) (natural protein)
increase of invasion of A375-hRAGE cells (Boyden chamber with Matrigel) with recombinant S100A4 (3000 ng/ml), against untreated cells [1]: 13%
increase of migration of A375-hRAGE cells (Boyden chamber) with recombinant S100A4 (3000 ng/ml), against untreated cells [1]: 23%
increase of invasion of A375 cells (Boyden chamber with Matrigel) with recombinant S100A4 (150 ng/ml), against untreated cells [2]: 21%
increase of migration of A375 cells (Boyden chamber) with recombinant S100A4 (150 ng/ml), against untreated cells [2]: 36%

soluble RAGE (sRAGE) (domain or fragment)
relative migration of A375 cells (Boyden chamber) with sRAGE (150 ng/ml), untreated cells set as 100%; blocks extracellular S100A4 from membrane RAGE [3]: 63%
decrease of invasion of A375-hS100A4 cells (Boyden chamber with Matrigel) with sRAGE (150 ng/ml), against untreated cells; blocks extracellular S100A4 from membrane RAGE [4]: 15%
decrease of migration of A375-hS100A4 cells (Boyden chamber) with sRAGE (150 ng/ml), against untreated cells; blocks extracellular S100A4 from membrane RAGE [4]: 24%
